Assay results published in patent publication US20250340892.

Target: T1, Eglin C (secreted from E. coli W3110 via the MccV system, positive secretion supernatant)
T1 chain: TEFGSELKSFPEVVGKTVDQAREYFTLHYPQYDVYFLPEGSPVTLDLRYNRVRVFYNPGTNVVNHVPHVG

B1: neutrophil elastase (protein)
chain: IVGGRRARPHAWPFMVSLQLRGGHFCGATLIAPNFVMSAAHCVANVNVRAVRVVLGAHNLSRREPTRQVFAVQRIFENGYDPVNLLNDIVILQLNGSATINANVQVAQLPAQGRRLGNGVQCLAMGWGLLGRNRGIASVLQELNVTVVTSLCRRSNVCTLVRGRQAGVCFGDSGSPLVCNGLIHGIASFVRGGCASGLYPDAFAPVAQFVNWIDSIIQ
- neutrophil elastase (NE) activity assay (fluorogenic substrate, RFU over time): NE activity with Eglin C positive secretion was comparable to positive control, which is NE with purified Eglin C (1.5 µM) while NE activity with Eglin C negative secretion showed a similar level with the sample having only NE
